The target in one data set is T1, CthPnkp (Acetivibrio thermocellus, UniProt A3DJ38).
T1 sequence (A3DJ38 1-870): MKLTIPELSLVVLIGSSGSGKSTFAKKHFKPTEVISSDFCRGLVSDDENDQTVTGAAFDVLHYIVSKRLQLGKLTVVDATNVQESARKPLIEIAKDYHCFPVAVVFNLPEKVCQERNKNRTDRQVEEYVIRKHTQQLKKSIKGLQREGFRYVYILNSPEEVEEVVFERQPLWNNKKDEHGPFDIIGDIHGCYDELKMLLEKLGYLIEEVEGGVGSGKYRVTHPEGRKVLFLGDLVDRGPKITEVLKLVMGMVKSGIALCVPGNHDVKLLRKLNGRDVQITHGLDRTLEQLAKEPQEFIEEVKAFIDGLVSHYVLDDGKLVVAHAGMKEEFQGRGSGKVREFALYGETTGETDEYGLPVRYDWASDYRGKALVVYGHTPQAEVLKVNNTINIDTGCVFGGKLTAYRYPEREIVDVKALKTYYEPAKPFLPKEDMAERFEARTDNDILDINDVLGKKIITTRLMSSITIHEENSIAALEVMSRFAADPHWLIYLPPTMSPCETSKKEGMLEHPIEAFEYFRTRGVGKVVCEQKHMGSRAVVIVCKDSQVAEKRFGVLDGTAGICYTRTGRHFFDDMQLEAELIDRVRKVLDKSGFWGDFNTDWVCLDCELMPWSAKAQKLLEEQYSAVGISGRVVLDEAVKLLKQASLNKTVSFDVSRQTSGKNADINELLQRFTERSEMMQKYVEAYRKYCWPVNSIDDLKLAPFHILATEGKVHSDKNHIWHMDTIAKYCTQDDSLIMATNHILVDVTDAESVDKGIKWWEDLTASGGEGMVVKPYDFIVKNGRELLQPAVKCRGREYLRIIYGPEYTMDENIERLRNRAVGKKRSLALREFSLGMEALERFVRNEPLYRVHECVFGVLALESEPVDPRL
Kind of data set: p-nitrophenol release. Particulars: Tris-HCl pH 7.0, 0.5 mM MnCl2, data not shown. Type of data set: biochemical.

Substrate in data set [1]: O=[N+]([O-])c1ccc(OP(=O)(O)O)cc1
The data set can be described thus: purified protein. As to conditions: Mn2+; exact conditions of titration not given, data not shown.

Substrate in data set [2]: O=[N+]([O-])c1ccc(OP(=O)(O)Oc2ccc([N+](=O)[O-])cc2)cc1
Kind of data set: purified protein. Particulars: Mn2+; exact conditions of titration not given, data not shown.

Km data for 2 molecules are collected here from PMC2190708 (Nucleic Acids Research, 2007).

For `O=[N+]([O-])c1ccc(OP(=O)(O)c2ccccc2)cc1` [compound ②, p-nitrophenyl phenylphosphonate], at CthPnkp, the Km was 67 mM.

B1: λ-Pase (Escherichia phage Lambda) (protein)
chain: MRYYEKIDGSKYRNIWVVGDLHGCYTNLMNKLDTIGFDNKKDLLISVGDLVDRGAENVECLELITFPWFRAVRGNHEQMMIDGLSERGNVNHWLLNGGGWFFNLDYDKEILAKALAHKADELPLIIELVSKDKKYVICHADYPFDEYEFGKPVDHQQVIWNRERISNSQNGIVKEIKGADTFIFGHTPAVKPLKFANQMYIDTGAVFCGNLTLIQVQGEGA
Take B1: the Km in the data set “purified protein [1]” amounted to 5.0 ± 0.1 mM; in “purified protein [2]” it was 10 ± 1.6 mM.
